Assay results taken from patent US20220259593A1, “CONTROL OF MAMMALIAN GENE DOSAGE USING CRISPR” (The Regents of the University of California, priority 2019, published 2022).

Tested on: K562 CRISPRi cells
Assay: Constant region variant library pooled growth screen, K562
Format: cell-based, human
Conditions: sgRNA constant region variants
Summary of the method: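 Relative activity expresses each targeting sequence:constant region pair's phenotype over that of the unmodified constant region. Pooled growth screen ran in K562 CRISPRi cells in duplicate spinner-flask replicates, with puromycin selection and 4–8 days' growth at >2000× coverage; library paired variants with 36 targeting sequences.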

[1] = activity relative to the unmodified constant region cr995
[2] = activity relative to the original, un-modified constant region cr995

| Molecule | Mean relative activity [1] | Mean relative activity [2] |
| --- | --- | --- |
| cr073 (nucleic acid, listed as DNA, chemistry not fully specified) guide: GTTTTAGCGCTAAGCTGGAAACAGCATAGCAAGTTTAAATAAGGCTAGTCCGTTATCAACTTGAAAAAGTGGCACCGAGTCGGTGCT | 0.265 | – |
| cr046 (nucleic acid, listed as DNA, chemistry not fully specified) guide: GGTTAACAGCTAAGCTGGAAACAGCATAGCAAGTTTAAATAAGGCTAGTCCGTTATCAACTTGAAAAAGTGGCACCGAGTCGGTGCT | 0.2592 | – |
| cr379 (nucleic acid, listed as DNA, chemistry not fully specified) guide: GTTTAAGAGCTAAGCTGGAAACAGCCTAGCAAGTTTAAATAAGGCTAGTCCGTTATCAACTTGAAAAAGTGGCACCGAGTCGGTGCT | – | 1.041 |
| cr965 (nucleic acid, listed as DNA, chemistry not fully specified) guide: GTTTAAGAGCTAAGCTGGAAACAGCATAGCAAGTTTAAATAAGGGTACTCCGTTATCAACTTGAAAAAGTGGCCTCGAGTCGAGGCT | 0.2572 | – |
| cr696 (nucleic acid, listed as DNA, chemistry not fully specified) guide: GTTTAAGAGCTAAGCTGGAAACAGCATAGCGAGTTTAAATAAGGCTCGTCCGTTATCCACTTGAAAAAGTGGCACCGAGTCGGTGCT | 0.2553 | – |
| cr110 (nucleic acid, listed as DNA, chemistry not fully specified) guide: GTTTAAGAGCTAAGCTGGAAACAGCATAGCAAGTTTAAATAAGGATATTCCGTTATCAACTTGAAAAAGTGGCATTGAGTCAATGCT | 0.2547 | – |
| cr480 (nucleic acid, listed as DNA, chemistry not fully specified) guide: GTTTAAGAGCTAAGCTGGAAACAGCATAGCAAGTTTAAATAAGGCTAGTCCGTTATCAAATTGAAAAATTGACACCTAGTAGGTGTT | 0.2543 | – |
| cr077 (nucleic acid, listed as DNA, chemistry not fully specified) guide: GATTAAGTGCTAAGCTGGAAACAGCATAGCAAGTTTAAATAAGGCTAGTCCGTTATCAACTTGAAAAAGTGGCACCGAGTCGGTGCT | 0.2538 | – |
| cr662 (nucleic acid, listed as DNA, chemistry not fully specified) guide: GTTTAAGAGCTAAGCTGGAAACAGCATAGCAAGTATAAATAAGGCTAGTCCGTTATCAACTTGAAAAAGTGGCACCGAGTCGGTGCT | 0.2491 | – |
| cr870 (nucleic acid, listed as DNA, chemistry not fully specified) guide: GTTTAAGAGCTAAGCTGGAAACAGCAAAGCAAGTTTAAATAAGGCTAGTCCGTTATCAACTTGAAAAAGTGGCACCGAGTCGGTGCT | – | 1.04 |
| cr720 (nucleic acid, listed as DNA, chemistry not fully specified) guide: GTTTAAGAGCTAAGCTGGAAACAGCATAGCAAGCTTAAATAAGGTTAATCCGTTATCAACTTGAAAAAGTGGCACCGAGTCGGTGCT | 0.2481 | – |
| cr792 (nucleic acid, listed as DNA, chemistry not fully specified) guide: GTTTAAGAGCTAAGCTGGAAACAGCATAGCAAGCTTAAATAAGGCTAGTCCGTTATCAACTTGAAAAAGTGCCACCGAGTCGGTGGT | 0.242 | – |
| cr158 (nucleic acid, listed as DNA, chemistry not fully specified) guide: GTTTAAGAGCTAAGCTGGAAACAGCATAGCAAGTTTAAATAAAGTTAATCTGTTATCAACTCGAAAGAGTGGCACCGAGTCGGTGCT | 0.2403 | – |
| cr025 (nucleic acid, listed as DNA, chemistry not fully specified) guide: CTTTAAAAGCTAAGCTGGAAACAGCATAGCAAGTTTAAATAAGGCTAGTCCGTTATCAACTTGAAAAAGTGGCACCGAGTCGGTGCT | 0.2396 | – |
| cr403 (nucleic acid, listed as DNA, chemistry not fully specified) guide: GTTTAAGAGCTAAGCTGGAAACAGCATAGCAAGCTTAAATAAGGCTAGTCCGTTATCAACTTGAAAAAGTGGCACAGAGTCTGTGCT | 0.2381 | – |
| cr198 (nucleic acid, listed as DNA, chemistry not fully specified) guide: GTTTAAGAGCTAAGCTGGAAACAGCATAGCAATTTTAAATAAGGCTAGTCCGTTATCAACTTGAAAAAGTGGCACCGAATCGGTGCT | 0.236 | – |
| cr262 (nucleic acid, listed as DNA, chemistry not fully specified) guide: GTTTAAGAGCTAAGCTGGAAACAGCATAGCAAGCTTAAATAAGGCTAGTCCGTTATCATCTTGAAAAAGAGGCACCGAGTCGGTGCT | 0.2329 | – |
| cr487 (nucleic acid, listed as DNA, chemistry not fully specified) guide: GTTTAAGAGCTAAGCTGGAAACAGCATAGCACGTTTAAATAAGGCTAGTCCGTTATCAACTTGAAAAAGTGGCACCGAGTCGGTGCT | – | 1.039 |
| cr308 (nucleic acid, listed as DNA, chemistry not fully specified) guide: GTTTAAGAGCTAAGCTGGAAACAGCATAGCAAGTTTAAATAAAGCTAGTCTGTTATCATCTTGAAAAAGAGGCTCCGAGTCGGAGCT | 0.2249 | – |
| cr220 (nucleic acid, listed as DNA, chemistry not fully specified) guide: GTTTAAGAGCTAAGCTGGAAACAGCATAGCAAGTTTAAATCAGGCTAGTCCATAATCAACTTGAAAAAGTGGCACCGAGTCGGTGCT | 0.2229 | – |
| cr207 (nucleic acid, listed as DNA, chemistry not fully specified) guide: GTTTAAGAGCTAAGCTGGAAACAGCATAGCAAGTTTAAATAAGGCTAGTCCGTTATCAACTTGAAAAAGTGGCACCGAGTGGGTGCT | 0.2154 | – |
| cr276 (nucleic acid, listed as DNA, chemistry not fully specified) guide: GTTTAAGAGCTAAGCTGGAAACAGCATAGCAAGTTTAAATAAGGATATTCCGTTATCAGCTTGAAAAAGCGGCACCCAGTGGGTGCT | 0.2143 | – |
| cr853 (nucleic acid, listed as DNA, chemistry not fully specified) guide: GTTTAAGAGCTAAGCTGGAAACAGCATAGCAATTTTAAATAAGGCGAGTCCGTTATCAACTTGAAAAAGTGGCACCGAGTCGGTGCT | 0.2121 | – |
| cr194 (nucleic acid, listed as DNA, chemistry not fully specified) guide: GTTTAAGAGCTAAGCTGGAAACAGCATAGCAAGTTTAAATAAGGCTAGTACGTTATCAACTTGAAAAAGTGGCACCGAGTCGGTGCT | 0.2113 | – |
| cr854 (nucleic acid, listed as DNA, chemistry not fully specified) guide: GTTTAAGAGCTAAGCTGGAAACAGCATAGCAAGTTTAAATAAGGCTAGTCCGTTATCAACTTGAAAAAGTGGCAGGGAGTCCCTGCT | 0.2099 | – |
| cr832 (nucleic acid, listed as DNA, chemistry not fully specified) guide: GTTTAAGAGCTAAGCTGGAAACAGCATAGCAAGTTTAAATAAGGCTAGTCCGTTATCAGCTTGAAAAAGCGGTGCCGAGTCGGCACT | – | 1.039 |
| cr011 (nucleic acid, listed as DNA, chemistry not fully specified) guide: GTTCAAGAGCTAAGCTGGAAACAGCATAGCAAGTTTAAATAAGGCTAGTCCGTTATCAACTTGAAAAAGTGGCACCGAGTCGGTGCT | 0.2088 | – |
| cr180 (nucleic acid, listed as DNA, chemistry not fully specified) guide: GTTTAAGAGCTAAGCTGGAAACAGCATAGCAAGTTTAAATCAGGCTAGTCCGTTATCAACTTGAAAAAGTGGCACCGAGCCGGTGCT | 0.208 | – |
| cr218 (nucleic acid, listed as DNA, chemistry not fully specified) guide: GTTTAAGAGCTAAGCTGGAAACAGCATAGCAATTTTAAATAAGGCTAGTCCGTTATCAACTTAAACAAGTGGCACCGAGTCGGTGCT | 0.207 | – |
| cr373 (nucleic acid, listed as DNA, chemistry not fully specified) guide: GTTTAAGAGCTAAGCTGGAAACAGCATAGCAAGCTTAAATAAGGCTAGTCCGTTATCAACTTGAAAAAGTGGCAGCGAGTCGCTGCT | 0.1993 | – |
